Experimental data published in patent US20200017563A1 (University of California, published 2020).
One block for each molecule: values may come before it.

How the values were obtained:
[1] = target: Human Tau K18 2×IN (V308I/Y309N) (human) (UniProt P10636); experiment: cell-based or functional assay
[2] = target: Human Tau K18 2×VY (I278V/N279Y) (human) (UniProt P10636); experiment: cell-based or functional assay
[3] = target: the molecule itself; experiment: MicroED structure of nanocrystals; self-association
Procedure: (§1) Nanocrystals of […] (SEQ ID NO: 12) synthetic peptide (purchased from Genscript) were prepared from 30 mg/ml stocks dissolved in water by the addition of 45 mM arachidonic acid to concentrated peptide. Subsequently crystals were grown in batch at 37° C. by the addition of 10 μl of precipitant (32% PEG10K in 100 mM phosphate citrate, pH 4.2) to 5 μl of protein. After 18 hours nanocrystals were resuspended by pipetting, spun down in an epitube and the resulting crystalline pellet was washed three times with water. Nanocrystals of VQIINK (SEQ ID NO: 11) peptide (purchased from Genscript) were grown by vapor diffusion from peptide at 15 mg/ml as a 1:2 drop ratio (protein:reservoir) from 0.29 M LiNO3, 24% (w/v) PEG 3350 at 18° C. and similarly harvested for data collection.
(§2) MicroED data were collected by spotting 2-3 μl of crystals onto TEM grids with carbon film support and plunge frozen in liquid ethane using a Vitrobot Mark IV (FEI). Diffraction images were collected on an FEI Tecnai F20 TEM at 200 kV as a continuous rotation tilt series at a rate of 0.2° per second with 2 second exposures per image. Diffraction data from several crystals were indexed, merged and scaled with XDS and XSCALE.²⁷ Molecular replacement was performed with Phaser²⁸ using a polyalanine search model composed of an ideal β-strand. The structure of VQIINK (SEQ ID NO: 11) was solved using a truncated version of […] […]

[4] = target: Human Tau40 (residues 1-441) with a C-terminal His-tag (human, UniProt P10636 1-757); experiment: cell-based or functional assay
[5] = target: the molecule itself; experiment: MicroED structure of fibril nanocrystals; self-association
Procedure: as §1, §2

Human Tau40 (residues 1-441) with a C-terminal His-tag, sequence (P10636 other isoform, or with tags, fused parts or gaps): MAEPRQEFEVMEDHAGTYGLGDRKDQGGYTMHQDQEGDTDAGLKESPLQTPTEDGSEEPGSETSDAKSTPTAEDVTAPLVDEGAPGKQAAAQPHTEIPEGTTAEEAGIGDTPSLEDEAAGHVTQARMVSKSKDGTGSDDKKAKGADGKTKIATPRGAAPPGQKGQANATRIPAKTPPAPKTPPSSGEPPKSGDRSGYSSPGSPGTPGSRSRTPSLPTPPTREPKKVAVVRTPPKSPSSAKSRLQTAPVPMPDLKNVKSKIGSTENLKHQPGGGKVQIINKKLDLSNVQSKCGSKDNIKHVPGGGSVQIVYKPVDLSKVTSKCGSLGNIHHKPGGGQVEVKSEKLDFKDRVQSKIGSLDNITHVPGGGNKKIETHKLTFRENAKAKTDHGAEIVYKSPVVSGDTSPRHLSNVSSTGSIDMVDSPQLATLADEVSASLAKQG

Molecule: Human Tau K18 2×IN (V308I/Y309N) (from UniProt P10636 561-689)
- ThT fluorescence, time to half maximum of fibril formation (50 µM, heparin, shaking, 37° C.) [1]: 70 min

Molecule: VQIINK [VQIINK peptide (six residue Tau segment)]
- binding result [3]: binds

B1: KVQIINKKLD synthetic peptide (ten residue Tau segment) (peptide)
peptide: KVQIINKKLD
notes: The peptide corresponds to Tau40 residues 274-283; also called ten residue VQIINK segment
- binding result [5]: binds

Continued, values first:

- ThT fluorescence, time to half maximum of fibril formation (50 µM, heparin, shaking, 37° C.) [2]: 220 min
Molecule: Human Tau K18 2×VY (I278V/N279Y) (from UniProt P10636 561-689)

- IC50 of inhibition of seeding by pre-formed Tau40 fibers in biosensor cells [4]: 25 µM
Molecule: DVQWINKKRK [WINK inhibitor peptide]

- IC50 of inhibition of seeding by pre-formed Tau40 fibers in biosensor cells [4]: 22 µM
Molecule: DVQMINKKRK [MINK inhibitor peptide]

- IC50 of inhibition of seeding by pre-formed Tau40 fibers in biosensor cells [4]: 9 µM
Molecule: DVWMINKKRK [W-MINK Phase 2 inhibitor peptide]
